Data from patent publication US20170023576A1 (ONCOMED PHARMACEUTICALS, published 2017).

Biological target: T1, human NOTCH3 extracellular domain (human, UniProt Q9UM47 40-1643)
T1 construct: In the tissue IHC the target is endogenous NOTCH3 in tumor sections; also called NOTCH3 ECD
Test: screening by FACS, Western blot and IHC on FFPE pellets of HEK-293 cells transiently transfected with NOTCH ECD constructs
From the text: Screening was first done by FACS, followed by Western blot analyses and then in IHC assays using HEK-293 cells transiently transfected with NOTCH1, NOTCH2, NOTCH3, or NOTCH4 ECD constructs. Starting with 68 supernatants from hybridoma cells, seven candidate antibodies were selected for further testing and optimization in IHC assays, 122M23, 122M25, 122M26, 122M27, 122M35, 122M36, and 122M40. […] The desired antibody needed to be specific for NOTCH3 ECD, so the staining had to be predominantly membrane localized, with minimal or no detectable background non-specific staining in transiently transfected cell pellets in FFPE format. In addition, the antibody had to give appropriate results on positive and negative control tissues.

T1 sequence (Q9UM47 40-1643 limits assumed): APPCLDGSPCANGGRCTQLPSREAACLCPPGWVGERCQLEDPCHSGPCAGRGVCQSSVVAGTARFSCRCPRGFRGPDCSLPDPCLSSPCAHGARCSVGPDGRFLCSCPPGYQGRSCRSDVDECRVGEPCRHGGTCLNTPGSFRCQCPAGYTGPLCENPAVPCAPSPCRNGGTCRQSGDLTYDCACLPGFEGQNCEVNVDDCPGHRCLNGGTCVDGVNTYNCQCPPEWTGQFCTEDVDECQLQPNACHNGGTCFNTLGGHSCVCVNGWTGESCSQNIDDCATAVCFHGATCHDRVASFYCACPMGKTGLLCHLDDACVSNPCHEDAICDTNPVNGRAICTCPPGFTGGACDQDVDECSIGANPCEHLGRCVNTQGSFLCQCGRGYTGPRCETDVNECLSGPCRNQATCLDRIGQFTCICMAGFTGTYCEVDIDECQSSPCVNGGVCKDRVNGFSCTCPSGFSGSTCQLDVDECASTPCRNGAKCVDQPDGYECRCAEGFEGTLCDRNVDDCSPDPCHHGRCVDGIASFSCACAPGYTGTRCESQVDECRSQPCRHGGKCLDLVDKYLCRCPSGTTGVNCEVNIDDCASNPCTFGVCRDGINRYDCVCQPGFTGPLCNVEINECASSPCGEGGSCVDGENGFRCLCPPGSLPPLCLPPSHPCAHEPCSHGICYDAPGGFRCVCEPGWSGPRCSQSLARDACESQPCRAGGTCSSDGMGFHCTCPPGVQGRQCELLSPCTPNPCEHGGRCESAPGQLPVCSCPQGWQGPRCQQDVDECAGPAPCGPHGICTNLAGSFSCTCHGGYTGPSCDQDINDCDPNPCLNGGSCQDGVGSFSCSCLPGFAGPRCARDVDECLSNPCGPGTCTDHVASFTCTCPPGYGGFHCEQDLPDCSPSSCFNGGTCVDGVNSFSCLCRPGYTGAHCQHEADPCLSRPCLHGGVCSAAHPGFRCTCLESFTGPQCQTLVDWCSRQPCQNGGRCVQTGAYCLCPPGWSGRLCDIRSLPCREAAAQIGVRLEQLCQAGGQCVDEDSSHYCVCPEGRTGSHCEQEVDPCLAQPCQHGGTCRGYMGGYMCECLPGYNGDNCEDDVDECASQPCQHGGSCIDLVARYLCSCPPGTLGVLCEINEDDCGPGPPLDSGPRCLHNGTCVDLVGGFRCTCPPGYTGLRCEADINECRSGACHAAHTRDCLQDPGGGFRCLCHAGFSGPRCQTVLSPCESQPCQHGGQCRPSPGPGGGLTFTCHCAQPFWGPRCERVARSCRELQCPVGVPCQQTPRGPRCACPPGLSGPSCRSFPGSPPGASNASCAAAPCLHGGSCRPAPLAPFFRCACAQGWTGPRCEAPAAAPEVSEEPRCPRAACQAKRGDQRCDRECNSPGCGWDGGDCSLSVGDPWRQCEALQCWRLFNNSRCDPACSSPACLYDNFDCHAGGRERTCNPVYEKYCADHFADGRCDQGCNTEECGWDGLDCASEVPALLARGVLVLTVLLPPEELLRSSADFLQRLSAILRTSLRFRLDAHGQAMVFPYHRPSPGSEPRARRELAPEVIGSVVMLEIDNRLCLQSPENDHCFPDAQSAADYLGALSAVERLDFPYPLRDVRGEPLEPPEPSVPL

binding result: binds
B1: anti-NOTCH3 antibody 122M23 (antibody, V domains shown)
VH: QVQLQQSGAELARPGASVKMSCKASGYTFTKYTIHWVAQKPGQGLEWIGYINPSNDYTNYNQTFKDKATLTADKSSTTAYMQLISLTSADSTVFYCARGTTPYSLDYWGQGTSVTVSS
VL: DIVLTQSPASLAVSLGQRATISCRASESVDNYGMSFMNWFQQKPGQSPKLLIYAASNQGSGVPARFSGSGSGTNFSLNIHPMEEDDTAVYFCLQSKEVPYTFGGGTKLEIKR
notes: Murine monoclonal antibody from a hybridoma (ATCC PTA-121154); also called murine monoclonal antibody 122M23
